# Data taken from paper PMC3696110, “Hsp70 Oligomerization Is Mediated by an Interaction between the Interdomain Linker and the Substrate-Binding Domain” (PLoS ONE, 2013).
# “And” between values parts separate entries of the source, which are not always exact repeats. Equal values may be shown once.
# Columns and labels:
# SBD641 = target: T1, SBD641 (Homo sapiens, UniProt P0DMV8); assay: Fluorescence titration of dansyl-NR peptide binding; conditions: 2 µM dansyl-NR peptide, fluorescence ex 330 nm; 50 mM Tris pH 7.4, 150 mM KCl, 5 mM MgCl2; 1 h at 25°C; single-site fit; average of two samples; read-out: Kd (apparent dissociation constant)
# T1 construct: SBD641 (384-641), corresponding to the full-length SBD; hexa-His (N, cleaved yes); made in house; host or cells: E. coli BL21 (DE3) Gold, pET-28b
# T1 sequence (P0DMV8 384-641): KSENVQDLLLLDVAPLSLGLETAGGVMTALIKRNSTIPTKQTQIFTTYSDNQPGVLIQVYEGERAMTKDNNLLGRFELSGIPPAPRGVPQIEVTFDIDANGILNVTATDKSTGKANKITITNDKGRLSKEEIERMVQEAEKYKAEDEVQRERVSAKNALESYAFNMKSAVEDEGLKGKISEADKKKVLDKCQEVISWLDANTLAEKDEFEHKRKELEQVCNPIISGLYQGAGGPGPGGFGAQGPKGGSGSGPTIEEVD
# Protocol: (§1) The interaction between the different Hsp70 variants and the NR peptide was studied in 50 mM Tris buffer at pH 7.4, with 150 mM KCl, and 5 mM MgCl2 using fluorescence spectroscopy by titrating different concentrations of chaperone into a solution containing 2 µM dansyl-NR peptide (N-terminally labeled; Genemed Synthesis Inc., San Antonio, TX, USA) after incubating the mixtures for 1 h at 25°C. The concentration of dansyl-NR peptide was calculated using an extinction coefficient at 327 nm of 4300 M^-1.cm^-1 [39]. The fluorescence emission spectrum of each sample was recorded from 400 to 630 nm after excitation at 330 nm, and the data reported correspond to the average intensity at the maximum emission wavelength of two different samples for which ten spectra were recorded. The increase in fluorescence signal was plotted as a function of chaperone concentration (Figure S2), and analyzed assuming single-site binding using the following equation:
# (§2) ΔF=ΔFmaxΘL=ΔFmax/2LT[(PT+LT+Kd)−(PT+LT+Kd)^2−4PTLT] (1)
# (§3) where ΘL is the fraction of bound ligand, ΔF is the increase in fluorescence intensity observed at a given concentration of Hsp70 variant, ΔF max is the increase in fluorescence at saturation, L T and P T are the total ligand and protein concentration respectively, and K d is the apparent dissociation constant of the complex. The fraction of bound ligand was plotted as a function of protein concentration in order to compare affinities between the different chaperone variants.
# FL-Hsp70 = target: T2, FL-Hsp70 (Homo sapiens, UniProt P0DMV8); assay: as above; conditions: 2 µM dansyl-NR peptide, fluorescence ex 330 nm; 50 mM Tris pH 7.4, 150 mM KCl, 5 mM MgCl2; 1 h at 25°C; single-site fit; average of two samples; read-out: Kd (apparent dissociation constant)
# T2 construct: 35% of full-length Hsp70 (FL-Hsp70) exists as oligomeric species; hexa-His (N, cleaved yes); made in house; host or cells: E. coli BL21 (DE3) Gold, pET-28b
# T2 sequence (P0DMV8 whole entry): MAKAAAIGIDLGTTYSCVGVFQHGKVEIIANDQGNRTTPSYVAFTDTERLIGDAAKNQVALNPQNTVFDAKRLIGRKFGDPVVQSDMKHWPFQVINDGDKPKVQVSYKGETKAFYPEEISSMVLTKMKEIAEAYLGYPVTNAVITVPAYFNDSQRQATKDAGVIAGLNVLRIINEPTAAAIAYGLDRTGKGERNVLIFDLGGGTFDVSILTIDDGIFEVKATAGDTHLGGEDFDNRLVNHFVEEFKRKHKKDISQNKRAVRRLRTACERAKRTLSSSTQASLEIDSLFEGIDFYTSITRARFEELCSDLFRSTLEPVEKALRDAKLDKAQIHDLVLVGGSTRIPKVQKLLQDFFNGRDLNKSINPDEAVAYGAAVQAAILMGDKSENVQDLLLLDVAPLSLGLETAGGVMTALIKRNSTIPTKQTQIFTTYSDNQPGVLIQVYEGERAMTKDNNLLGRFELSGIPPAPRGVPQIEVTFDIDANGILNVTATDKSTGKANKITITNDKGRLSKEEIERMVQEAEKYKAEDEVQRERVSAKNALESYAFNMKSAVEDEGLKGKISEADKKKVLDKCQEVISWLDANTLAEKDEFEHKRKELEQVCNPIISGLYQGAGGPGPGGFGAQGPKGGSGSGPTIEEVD
# Protocol: as §1, §2, §3
# ΔLSBD641 = target: T3, ΔLSBD641 (Homo sapiens, UniProt P0DMV8); assay: as above; conditions: 2 µM dansyl-NR peptide, fluorescence ex 330 nm; 50 mM Tris pH 7.4, 150 mM KCl, 5 mM MgCl2; 1 h at 25°C; single-site fit; average of two samples; read-out: Kd (apparent dissociation constant)
# T3 construct: ΔLSBD641 (394-641), corresponding to SBD641 without the first ten residues of the interdomain linker; hexa-His (N, cleaved yes); made in house; host or cells: E. coli BL21 (DE3) Gold, pET-28b
# T3 sequence (P0DMV8 395-641, stated change not applied): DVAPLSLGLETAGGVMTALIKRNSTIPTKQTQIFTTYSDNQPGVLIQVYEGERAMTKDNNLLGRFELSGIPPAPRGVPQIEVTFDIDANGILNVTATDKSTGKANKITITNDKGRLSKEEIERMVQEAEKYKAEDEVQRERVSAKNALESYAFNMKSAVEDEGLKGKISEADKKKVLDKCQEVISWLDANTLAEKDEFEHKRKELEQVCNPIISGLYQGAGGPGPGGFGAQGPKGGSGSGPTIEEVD
# Protocol: as §1, §2, §3
# SBD556 = target: T4, SBD556 (Homo sapiens, UniProt P0DMV8, L542Y); assay: as above
# T4 construct: SBD556 (384-556), which lacks helices C, D and E and the C-terminal disordered region; hexa-His (N, cleaved yes); made in house; host or cells: E. coli BL21 (DE3) Gold, pET-28b
# T4 sequence (P0DMV8 384-556 L542Y): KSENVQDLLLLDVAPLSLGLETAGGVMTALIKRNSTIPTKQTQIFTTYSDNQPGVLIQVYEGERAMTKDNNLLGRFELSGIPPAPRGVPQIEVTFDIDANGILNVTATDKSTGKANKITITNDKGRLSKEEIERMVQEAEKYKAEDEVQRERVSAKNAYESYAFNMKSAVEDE
# Protocol: as §1, §2, §3
# [1] = previously reported; ref [S3]; cited from earlier work
# Protocol: Supplementary file pone.0067961.s005.tif: Figure S4 Concentration dependency of the analytical SEC chromatograms of the 'C-term' variant. The protein concentrations used were 1µM (black line), 2µM (orange line), 5 µM (pink line), 10 µM (cyan line), 70 µM (red line) and 125 µM (green line). Essentially the same elution profile was found for all the protein concentrations used. At the top the chromatogram the previously reported Stokes radii of the standard proteins used to calibrate the column are reported: conalbumin (40.4 Å), ovalbumin (30.5 Å), carbonic anhydrase (23.6 Å) [S3], ribonuclease ...
# [2] = nESI-MS relative populations of oligomeric forms; format: physicochemical, human; conditions: 6-15 µM protein, 150 mM ammonium acetate, pH 7.4, estimated error 5% (SD of 3-4 independent experiments)
# Protocol: Prior to MS analysis, samples were buffer exchanged into 150 mM ammonium acetate, pH 7.4, using Micro Bio-spin 6 columns (Bio-Rad, Digilab Division, Cambridge, MA, USA). For all the experiments protein concentrations ranging from 6 to 18 µM were used. In the case of the substrate binding experiments, proteins were analyzed in the presence of a 1: 1 molar ratio of the NR peptide; this substrate concentration, lower than in the SEC experiments, was chosen to ensure adequate resolution of the various charge state series, which is critical for unambiguous assignment of substrate-bound states. Due to suppression effects during nESI ionization, a relatively limited set of molar ratios could be investigated by in this way.
# nESI-MS spectra were obtained according to a previously published protocol on an orthogonal time-of-flight mass spectrometer with a Z-spray source (LCT, Waters, Manchester, UK) in positive ion mode using the following parameters: capillary voltage, 1500 V; sample cone voltage, 120 V (unless otherwise specified); extraction cone voltage, 1V; and ion transfer stage pressure, 8.8 mbar. Spectra were calibrated externally using a 33 mg/ml solution of cesium iodide. Data were acquired and processed with MassLynx software (Waters, Manchester, UK), and are shown with minimal smoothing and without background subtraction. The relative abundances of the different oligomeric states were estimated from the intensities of the most abundant charge states for each construct and are expressed as a percentage of the total intensity.
# [3] = Thermal denaturation monitored by far-UV CD; format: physicochemical, human
# Protocol: Protein structural stability was analyzed by monitoring the CD signal at 222 nm upon thermal denaturation. Thermal runs were performed from 5 to 90 °C at a rate of 1 °C. min^-1. Data points were acquired every 0.1 °C with a response time of 2 s and a bandwidth of […]. After thermal denaturation, each protein sample was cooled to the starting temperature, and a second denaturation curve recorded in order to analyse the degree of reversibility of the denaturation process. Analysis of the thermal unfolding curves was performed assuming a three-state unfolding model.
# [4] = Secondary structure content from far-UV CD; format: physicochemical, human; conditions: K2D software; 20 µM protein, 7 mM Tris pH 7.4, 170 mM KCl, 5 mM MgCl2; 25 °C
# Protocol: Far-UV CD spectra for all protein variants were recorded using a Jasco J-810 spectropolarimeter equipped with a Peltier holder, using a 0.1 cm path length cuvette. Typically, samples contained 20 µM protein in 7 mM Tris buffer at pH 7.4, containing 170 mM KCl and 5 mM MgCl2. The far-UV CD spectra of all the variants in their native, thermally denatured and refolded states were recorded from 198 to 250 nm, and the spectrum of the buffer was systematically subtracted from the spectra of all protein samples. The secondary structure content was estimated from the far-UV CD spectrum for each protein variant using K2D software.
# [5] = Analytical SEC relative populations of oligomeric forms; format: physicochemical, human; conditions: Superdex 75, 4 °C, 50 mM Tris pH 7.4, 150 mM KCl
# Protocol: (§4) Analytical SEC was performed at 4 °C using a Superdex 75 10/300 GL column (GE Healthcare LifeSciences, Little Chalfont, U.K.), which had previously been calibrated using a mixture of standard proteins (Gel Filtration LMW Calibration Kit; GE Healthcare LifeSciences, Little Chalfont, U.K.). Typically, samples of the various constructs contained 70 µM of protein in 50 mM Tris buffer at pH 7.4, with 150 mM KCl, 5 mM MgCl2 and were incubated for 15 min (unless otherwise specified) at room temperature before being loaded onto the column for analysis. To evaluate the reversibility of the oligomerization process, the different elution peaks obtained for each protein variant were subsequently analyzed after concentrating the different fractions using AmiconUltra-0.5, Ultracel-3 Membrane, 3 kDa (Millipore, Bedford, MA, USA). A similar analysis was also performed at 6 µM concentration for all the protein variants to allow for a direct comparison between the results obtained by SEC and MS experiments.
# The influence of substrate binding on the oligomerization properties of all the variants was examined by using the well-characterized Hsp70 substrate, the NR peptide (NRLLLTG, Genemed Synthesis Inc., San Antonio, TX, USA). A 14-fold excess of the peptide was added in each case to a fresh protein sample, incubated for 1 h at room temperature, unless otherwise specified, and then loaded onto the Superdex 75 10/300 GL column for analysis. The relative quantities of the different protein species were estimated by analysing the chromatographic profile using a Gaussian function for each elution peak (OriginPro 8, Originlab, Northampton, MA, USA) and measuring the relative area under each peak.
# [6] = SEC/DLS of oligomeric species; format: physicochemical, human; conditions: SEC, ΔLSBD641 at the same protein concentration, no NR peptide
# Protocol: as §4, with “A similar analysis was also performed at 6 µM concentration for all the protein variants to allow for a direct comparison between the results obtained by SEC and MS experiments.” left out
# Dynamic light scattering. Representative size distributions of SBD641 at different protein concentrations in Tris 50 mM, pH 7.4, 150 mM KCl, 5 mM MgCl2 were recorded at 25 °C on the Zetasizer Nano ZS instrument (Malvern Instruments Ltd.) at 633 nm after 1 h of incubation at room temperature. […] Some samples were analyzed after 1 h and 4 h incubation at room temperature and the same intensity size distributions were obtained. The samples were centrifuged for 15 min at 13200 rpm to remove dust particles and the scattered light was detected at an angle of 173°. […]
# [7] = 70 µM protein, 5 mM MgCl2, 15 min at room temperature, estimated error 3.5% (SD of 3-4 independent experiments)
# [8] = 6-15 µM protein, 5 mM MgCl2, estimated error 3.5% (SD of 3-4 independent experiments)
compound,measurement,setting,value
"CC(C)C[C@H](NC(=O)[C@H](CC(C)C)NC(=O)[C@H](CCCNC(=N)N)NC(=O)[C@@H](N)CC(N)=O)C(=O)N[C@@H](CC(C)C)C(=O)N[C@H](C(=O)NCC(=O)O)[C@@H](C)O [NR peptide, NRLLLTG]",Kd,SBD641,11 µM and 1 to 10 µM
same,Kd,FL-Hsp70,9 µM and 8 to 10 µM
same,Kd,ΔLSBD641,8 ± 2 µM
same,Kd,"SBD556; 2 µM dansyl-NR peptide, fluorescence ex 330 nm, 50 mM Tris pH 7.4, 150 mM KCl, 5 mM MgCl2, 1 h at 25°C, single-site fit, average of two samples, read-out: Kd (apparent dissociation constant)",53 ± 16 µM
same,Reduction of fluorescence intensity at saturation (Fmax),"SBD556; fluorescence titration, SBD556 vs other chaperone variants",~25%
carbonic anhydrase [reference compound],Stokes radius of SEC standard protein,[1],23.6 Å
"ΔLSBD641: SBD641 without the first ten residues of the interdomain linker (SENVQDLLLL), residues 394-641",Dimer population,[2],8%
same,Monomer population,[2],> 90%
same,Total oligomer population,[2],8%
same,Trimer population,[2],0%
same,Monomer population,[2]; listed as ∆LSBD641,92%
same,"∆Hm, 1st transition","[3]; CD 222 nm, 20 µM protein, 7 mM Tris pH 7.4, 170 mM KCl, 5 mM MgCl2, three-state fit (C-term two-state), SE of fit",45.6 ± 2.4 kcal/mol
same,"∆Hm, 2nd transition","[3]; CD 222 nm, 20 µM protein, 7 mM Tris pH 7.4, 170 mM KCl, 5 mM MgCl2, three-state fit, SE of fit",61.0 ± 1.1 kcal/mol
same,"Tm, 1st transition","[3]; CD 222 nm, 5 to 90 °C at 1 °C/min, 20 µM protein, 7 mM Tris pH 7.4, 170 mM KCl, 5 mM MgCl2, three-state fit (C-term two-state), SE of fit",44.9 ± 0.3 °C
same,"Tm, 2nd transition","[3]; CD 222 nm, 5 to 90 °C at 1 °C/min, 20 µM protein, 7 mM Tris pH 7.4, 170 mM KCl, 5 mM MgCl2, three-state fit, SE of fit",72.3 ± 0.1 °C
same,Degree of irreversibility of overall protein thermal denaturation,[3]; far-UV CD,exactly the same behaviour
same,Random-coil content estimated from far-UV CD,[4],47%
same,α-helix content estimated from far-UV CD,[4],35%
same,β-sheet content estimated from far-UV CD,[4],18%
same,Dimer population,[5]; [7],14%
same,Monomer population,[5]; [7],86%
same,Total oligomer population,[5]; [7],14%
same,Dimer population,[5]; [8],9%
same,Monomer population,[5]; [8],> 90%
same,Total oligomer population,[5]; [8],9%
same,Monomer population,"[5]; 6-15 µM protein, 5 mM MgCl2, estimated error 3.5% (SD of 3-4 independent experiments), listed as ∆LSBD641",91%
same,Oligomer fraction,[6],ca. 0.1
